# Like-named read-outs stand apart in the source and are kept apart here.
# What was measured:
# Assay in all cases: ELISA
# [1] = target: microtubules / purified porcine brain tubulin (porcine)
# [2] = target: microtubules / purified porcine brain tubulin (porcine); remark: listed apart in the source
# GST-PEX14-NTD (human) = GST-PEX14-NTD (human) (UniProt O75381)
# GST-PEX14-NTD (human), sequence (O75381 1-80): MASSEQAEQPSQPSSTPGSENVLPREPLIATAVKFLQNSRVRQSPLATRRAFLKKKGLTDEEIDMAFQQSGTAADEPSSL
substance,measurement,setting,value
GST-PEX14-NTD (from UniProt O75381 1-80) (domain or fragment),Kd,[1],0.0007 to 0.0023 µM
same,Kd,[2],0.0021 µM
His-PEX14-NTD (from UniProt O75381 1-80) (domain or fragment),fold weaker affinity than GST-PEX14-NTD/MT,[2],> 100 fold
full-length His6-TEV-PEX5S (from UniProt P50542-2 1-602) (natural protein),IC50,GST-PEX14-NTD (human),1.2 µM
monomeric His-tagged Kif5B kinesin motor domain (domain or fragment),Kd,[2],0.0566 µM

# — paper doi:10.1101/2020.07.23.218024
